Data: article PMC9896810

What was measured:
[1] = molecular target: C3G-AAPA (human), Q13905; experiment: ITC; single-PRM mutants of C3G in the cell titrated with full-length CrkL or CrkL-SH3N; 25 °C; 1:1 model in SEDPHAT; N is the competent fraction of C3G
[2] = molecular target: C3G-AAAP (human), Q13905; experiment: as above
[3] = molecular target: C3G-AAPA (human), Q13905
[4] = molecular target: Src-phosphorylated C3G-AAAP (pC3G-AAAP) (human), Q13905
[5] = molecular target: Src-phosphorylated C3G-AAPP (pC3G-AAPP) (human), Q13905
[6] = molecular target: Src-phosphorylated C3G-AAPA (pC3G-AAPA) (human), Q13905
[7] = molecular target: C3G-AAPP (human), Q13905
[8] = molecular target: GST-CrkL-SH3N; experiment: pull-down; conditions: chain shown with the change; PD with GST-CrkL-SH3N, C3G detected by western blot (WB:C3G); parent: 1.0
[9] = molecular target: GST-CrkL-SH3N; experiment: pull-down; conditions: chain shown with the change, PD with GST-CrkL-SH3N, C3G detected by western blot (WB:C3G), parent: 1.0

B1: CrkL, full-length (human), P46109 1-303 (natural protein)
chain: MSSARFDSSDRSAWYMGPVSRQEAQTRLQGQRHGMFLVRDSSTCPGDYVLSVSENSRVSHYIINSLPNRRFKIGDQEFDHLPALLEFYKIHYLDTTTLIEPAPRYPSPPMGSVSAPNLPTAEDNLEYVRTLYDFPGNDAEDLPFKKGEILVIIEKPEEQWWSARNKDGRVGMIPVPYVEKLVRSSPHGKHGNRNSNSYGIPEPAHAYAQPQTTTPLPAVSGSPGAAITPLPSTQNGPVFAKAIQKRVPCAYDKTALALEVGDIVKVTRMNINGQWEGEVNGRKGLFPFTHVKIFDPQNPDENE
[1]
  Kd: 2 µM
  stoichiometry N: 0.13
[2]
  Kd: 2 µM
  stoichiometry N: 0.55
[3]
  AC50 of the dose-response activation of the GEF activity of C3G (1 µM) on Rap1b:mant-dGDP: 28.1 µM
  kmax of the dose-response activation of the GEF activity of C3G (1 µM) on Rap1b:mant-dGDP: 9100 M⁻¹ s⁻¹
[4]
  AC50 of the dose-response activation of the GEF activity of pC3G (0.2 µM) on Rap1b:mant-dGDP; the text says that pC3G-AAAP was not stimulated by CrkL: 0.6 µM
  kmax of the dose-response activation of the GEF activity of pC3G (0.2 µM) on Rap1b:mant-dGDP; the text says that pC3G-AAAP was not stimulated by CrkL: 0.0045 s^-1 µM^-1
[5]
  AC50 of the dose-response activation of the GEF activity of pC3G (0.2 µM) on Rap1b:mant-dGDP: 2.2 µM
  kmax of the dose-response activation of the GEF activity of pC3G (0.2 µM) on Rap1b:mant-dGDP: 0.0357 s^-1 µM^-1
[6]
  AC50 of the dose-response activation of the GEF activity of pC3G (0.2 µM) on Rap1b:mant-dGDP: 1.3 µM
  kmax of the dose-response activation of the GEF activity of pC3G (0.2 µM) on Rap1b:mant-dGDP: 0.0269 s^-1 µM^-1
[7]
  AC50 of the dose-response activation of the GEF activity of C3G (1 µM) on Rap1b:mant-dGDP: 23.7 µM
  kmax of the dose-response activation of the GEF activity of C3G (1 µM) on Rap1b:mant-dGDP: 13600 M⁻¹ s⁻¹

B2: C3G (full-length, residues 4-1077), Q13905-1 P283A; P284A; L286A; P287A; K289A; P453A; P454A; L456A; P457A; K459A; P540A; P541A; L543A; P544A; K546A (protein)
chain: DSQRSHLSSFTMKLMDKFHSPKIKRTPSKKGKPAEVSVKIPEKPVNKEATDRFLPEGYPLPLDLEQQAVEFMSTSAVASRSQRQKNLSWLEEKEKEVVSALRYFKTIVDKMAIDKKVLEMLPGSASKVLEAILPLVQNDPRIQHSSALSSCYSRVYQSLANLIRWSDQVMLEGVNSEDKEMVTTVKGVIKAVLDGVKELVRLTIEKQGRPSPTSPVKPSSPASKPDGPAELPLTDREVEILNKTTGMSQSTELLPDATDEEVAPPKPPLPGIRVVDNSPAAAAAPAKRQSAPSPTRVAVVAPMSRATSGSSLPVGINRQDFDVDCYAQRRLSGGSHSYGGESPRLSPCSSIGKLSKSDEQLSSLDRDSGQCSRNTSCETLDHYDPDYEFLQQDLSNADQIPQQTAWNLSPLPESLGESGSPFLGPPFQLPLGGHPQPDGPLAPGQQTDTAAAAAEAKRRSAASQTADGSGCRVSYERHPSQYDNISGEDLQSTAPIPSVPYAPFAAILPFQHGGSSAPVEFVGDFTAPESTGDPEKAAPAAEAKNKHMLAYMQLLEDYSEPQPSMFYQTPQNEHIYQQKNKLLMEVYGFSDSFSGVDSVQELAPPPALPPKQRQLEPPAGKDGHPRDPSAVSGVPGKDSRDGSERAPKSPDALESAQSEEEVDELSLIDHNEIMSRLTLKQEGDDGPDVRGGSGDILLVHATETDRKDLVLYCEAFLTTYRTFISPEELIKKLQYRYEKFSPFADTFKKRVSKNTFFVLVRVVDELCLVELTEEILKLLMELVFRLVCNGELSLARVLRKNILDKVDQKKLLRCATSSQPLAARGVAARPGTLHDFHSHEIAEQLTLLDAELFYKIEIPEVLLWAKEQNEEKSPNLTQFTEHFNNMSYWVRSIIMLQEKAQDRERLLLKFIKIMKHLRKLNNFNSYLAILSALDSAPIRRLEWQKQTSEGLAEYCTLIDSSSSFRAYRAALSEVEPPCIPYLGLILQDLTFVHLGNPDYIDGKVNFSKRWQQFNILDSMRCFQQAHYDMRRNDDIINFFNDFSDHLAEEALWELSLKIKPRNITRRKTDREEKT
[8]
  ratio to parent: 0.3
[9]; C3G-AAAP phosphorylated by Src (phospho AAAP)
  ratio to parent: 0.4
[9]
  ratio to parent: 0.4

B3: C3G (full-length, residues 4-1077), Q13905-1 P283A; P284A; L286A; P287A; K289A; P453A; P454A; L456A; P457A; K459A; P540A; P541A; L543A; P544A; K546A; Y554H (protein)
chain: DSQRSHLSSFTMKLMDKFHSPKIKRTPSKKGKPAEVSVKIPEKPVNKEATDRFLPEGYPLPLDLEQQAVEFMSTSAVASRSQRQKNLSWLEEKEKEVVSALRYFKTIVDKMAIDKKVLEMLPGSASKVLEAILPLVQNDPRIQHSSALSSCYSRVYQSLANLIRWSDQVMLEGVNSEDKEMVTTVKGVIKAVLDGVKELVRLTIEKQGRPSPTSPVKPSSPASKPDGPAELPLTDREVEILNKTTGMSQSTELLPDATDEEVAPPKPPLPGIRVVDNSPAAAAAPAKRQSAPSPTRVAVVAPMSRATSGSSLPVGINRQDFDVDCYAQRRLSGGSHSYGGESPRLSPCSSIGKLSKSDEQLSSLDRDSGQCSRNTSCETLDHYDPDYEFLQQDLSNADQIPQQTAWNLSPLPESLGESGSPFLGPPFQLPLGGHPQPDGPLAPGQQTDTAAAAAEAKRRSAASQTADGSGCRVSYERHPSQYDNISGEDLQSTAPIPSVPYAPFAAILPFQHGGSSAPVEFVGDFTAPESTGDPEKAAPAAEAKNKHMLAHMQLLEDYSEPQPSMFYQTPQNEHIYQQKNKLLMEVYGFSDSFSGVDSVQELAPPPALPPKQRQLEPPAGKDGHPRDPSAVSGVPGKDSRDGSERAPKSPDALESAQSEEEVDELSLIDHNEIMSRLTLKQEGDDGPDVRGGSGDILLVHATETDRKDLVLYCEAFLTTYRTFISPEELIKKLQYRYEKFSPFADTFKKRVSKNTFFVLVRVVDELCLVELTEEILKLLMELVFRLVCNGELSLARVLRKNILDKVDQKKLLRCATSSQPLAARGVAARPGTLHDFHSHEIAEQLTLLDAELFYKIEIPEVLLWAKEQNEEKSPNLTQFTEHFNNMSYWVRSIIMLQEKAQDRERLLLKFIKIMKHLRKLNNFNSYLAILSALDSAPIRRLEWQKQTSEGLAEYCTLIDSSSSFRAYRAALSEVEPPCIPYLGLILQDLTFVHLGNPDYIDGKVNFSKRWQQFNILDSMRCFQQAHYDMRRNDDIINFFNDFSDHLAEEALWELSLKIKPRNITRRKTDREEKT
[9]
  ratio to parent: 0.4

B4: C3G (full-length, residues 4-1077), Q13905-1 P283A; P284A; L286A; P287A; K289A; P453A; P454A; L456A; P457A; K459A; P608A; P609A; L611A; P612A; K614A (protein)
chain: DSQRSHLSSFTMKLMDKFHSPKIKRTPSKKGKPAEVSVKIPEKPVNKEATDRFLPEGYPLPLDLEQQAVEFMSTSAVASRSQRQKNLSWLEEKEKEVVSALRYFKTIVDKMAIDKKVLEMLPGSASKVLEAILPLVQNDPRIQHSSALSSCYSRVYQSLANLIRWSDQVMLEGVNSEDKEMVTTVKGVIKAVLDGVKELVRLTIEKQGRPSPTSPVKPSSPASKPDGPAELPLTDREVEILNKTTGMSQSTELLPDATDEEVAPPKPPLPGIRVVDNSPAAAAAPAKRQSAPSPTRVAVVAPMSRATSGSSLPVGINRQDFDVDCYAQRRLSGGSHSYGGESPRLSPCSSIGKLSKSDEQLSSLDRDSGQCSRNTSCETLDHYDPDYEFLQQDLSNADQIPQQTAWNLSPLPESLGESGSPFLGPPFQLPLGGHPQPDGPLAPGQQTDTAAAAAEAKRRSAASQTADGSGCRVSYERHPSQYDNISGEDLQSTAPIPSVPYAPFAAILPFQHGGSSAPVEFVGDFTAPESTGDPEKPPPLPEKKNKHMLAYMQLLEDYSEPQPSMFYQTPQNEHIYQQKNKLLMEVYGFSDSFSGVDSVQELAPAAAAAPAQRQLEPPAGKDGHPRDPSAVSGVPGKDSRDGSERAPKSPDALESAQSEEEVDELSLIDHNEIMSRLTLKQEGDDGPDVRGGSGDILLVHATETDRKDLVLYCEAFLTTYRTFISPEELIKKLQYRYEKFSPFADTFKKRVSKNTFFVLVRVVDELCLVELTEEILKLLMELVFRLVCNGELSLARVLRKNILDKVDQKKLLRCATSSQPLAARGVAARPGTLHDFHSHEIAEQLTLLDAELFYKIEIPEVLLWAKEQNEEKSPNLTQFTEHFNNMSYWVRSIIMLQEKAQDRERLLLKFIKIMKHLRKLNNFNSYLAILSALDSAPIRRLEWQKQTSEGLAEYCTLIDSSSSFRAYRAALSEVEPPCIPYLGLILQDLTFVHLGNPDYIDGKVNFSKRWQQFNILDSMRCFQQAHYDMRRNDDIINFFNDFSDHLAEEALWELSLKIKPRNITRRKTDREEKT
[9]; C3G-AAPA phosphorylated by Src (phospho AAPA)
  ratio to parent: 0.3

B5: C3G (full-length, residues 4-1077), Q13905-1 P283A; P284A; L286A; P287A; K289A; P540A; P541A; L543A; P544A; K546A; P608A; P609A; L611A; P612A; K614A (protein)
chain: DSQRSHLSSFTMKLMDKFHSPKIKRTPSKKGKPAEVSVKIPEKPVNKEATDRFLPEGYPLPLDLEQQAVEFMSTSAVASRSQRQKNLSWLEEKEKEVVSALRYFKTIVDKMAIDKKVLEMLPGSASKVLEAILPLVQNDPRIQHSSALSSCYSRVYQSLANLIRWSDQVMLEGVNSEDKEMVTTVKGVIKAVLDGVKELVRLTIEKQGRPSPTSPVKPSSPASKPDGPAELPLTDREVEILNKTTGMSQSTELLPDATDEEVAPPKPPLPGIRVVDNSPAAAAAPAKRQSAPSPTRVAVVAPMSRATSGSSLPVGINRQDFDVDCYAQRRLSGGSHSYGGESPRLSPCSSIGKLSKSDEQLSSLDRDSGQCSRNTSCETLDHYDPDYEFLQQDLSNADQIPQQTAWNLSPLPESLGESGSPFLGPPFQLPLGGHPQPDGPLAPGQQTDTPPALPEKKRRSAASQTADGSGCRVSYERHPSQYDNISGEDLQSTAPIPSVPYAPFAAILPFQHGGSSAPVEFVGDFTAPESTGDPEKAAPAAEAKNKHMLAYMQLLEDYSEPQPSMFYQTPQNEHIYQQKNKLLMEVYGFSDSFSGVDSVQELAPAAAAAPAQRQLEPPAGKDGHPRDPSAVSGVPGKDSRDGSERAPKSPDALESAQSEEEVDELSLIDHNEIMSRLTLKQEGDDGPDVRGGSGDILLVHATETDRKDLVLYCEAFLTTYRTFISPEELIKKLQYRYEKFSPFADTFKKRVSKNTFFVLVRVVDELCLVELTEEILKLLMELVFRLVCNGELSLARVLRKNILDKVDQKKLLRCATSSQPLAARGVAARPGTLHDFHSHEIAEQLTLLDAELFYKIEIPEVLLWAKEQNEEKSPNLTQFTEHFNNMSYWVRSIIMLQEKAQDRERLLLKFIKIMKHLRKLNNFNSYLAILSALDSAPIRRLEWQKQTSEGLAEYCTLIDSSSSFRAYRAALSEVEPPCIPYLGLILQDLTFVHLGNPDYIDGKVNFSKRWQQFNILDSMRCFQQAHYDMRRNDDIINFFNDFSDHLAEEALWELSLKIKPRNITRRKTDREEKT
[8]
  ratio to parent: 0.4

B6: CrkL-SH3N (residues 125-182), P46109 125-182 (domain or fragment)
chain: LEYVRTLYDFPGNDAEDLPFKKGEILVIIEKPEEQWWSARNKDGRVGMIPVPYVEKLV
[1]
  Kd: 3.5 µM
  stoichiometry N: 0.2
